# According to PMC10130748:
# Legend:
# [1] = molecular target: CD62P lectin domain R16E/K17E mutant
# [2] = molecular target: CD62P (P-selectin) lectin domain (residues 1–117), wild type; experiment: ELISA; wells coated with the CD62P lectin domain (WT, mutants, or lectin+EGF; 50 μg/ml where stated), blocked with BSA; soluble αvβ3 or αIIbβ3 (1 μg/ml) in HEPES-Tyrodes buffer with 1 mM MnCl2, 1 h, room temperature; bound integrin detected with anti-β3 mAb AV-10 and HRP anti-mouse IgG
# Chain of CD62P (P-selectin) lectin domain (residues 1–117), wild type (P16109 42-158): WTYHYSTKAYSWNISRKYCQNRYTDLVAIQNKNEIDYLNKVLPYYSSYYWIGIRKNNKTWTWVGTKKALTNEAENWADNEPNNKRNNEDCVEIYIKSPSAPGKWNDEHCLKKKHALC
# Chain of CD62P lectin domain R16E/K17E mutant (P16109 42-158 R57E/K58E): as the sequence (P16109 42-158) above, with R16E, K17E counted along it
# Chain of integrin αvβ3 on β3-CHO cells (P05106 whole entry, looked up): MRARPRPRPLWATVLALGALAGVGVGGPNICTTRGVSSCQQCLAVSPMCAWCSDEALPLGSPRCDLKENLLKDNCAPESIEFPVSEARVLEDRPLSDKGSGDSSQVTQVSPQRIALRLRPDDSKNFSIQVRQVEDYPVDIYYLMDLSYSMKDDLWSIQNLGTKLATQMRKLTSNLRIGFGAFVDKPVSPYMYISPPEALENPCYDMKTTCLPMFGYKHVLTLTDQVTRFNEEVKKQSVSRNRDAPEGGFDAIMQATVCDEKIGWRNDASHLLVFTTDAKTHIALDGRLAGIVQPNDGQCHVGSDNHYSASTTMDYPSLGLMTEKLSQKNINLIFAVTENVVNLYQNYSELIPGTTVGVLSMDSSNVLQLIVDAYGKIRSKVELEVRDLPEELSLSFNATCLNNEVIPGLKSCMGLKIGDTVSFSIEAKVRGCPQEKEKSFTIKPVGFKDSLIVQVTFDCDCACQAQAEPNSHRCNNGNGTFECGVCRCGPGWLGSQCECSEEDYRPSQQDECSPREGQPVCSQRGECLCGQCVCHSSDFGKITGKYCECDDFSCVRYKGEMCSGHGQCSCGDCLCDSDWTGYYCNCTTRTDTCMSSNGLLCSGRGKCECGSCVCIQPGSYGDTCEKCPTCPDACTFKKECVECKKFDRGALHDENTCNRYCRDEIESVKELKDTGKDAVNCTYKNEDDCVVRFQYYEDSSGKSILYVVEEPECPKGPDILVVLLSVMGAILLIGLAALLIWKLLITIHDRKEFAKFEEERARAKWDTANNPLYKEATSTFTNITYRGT
Substance,fold binding relative to the combined lectin and EGF-like domains [2] [fold],also measured
integrin α5β1 on parent CHO cells (receptor),–,"static adhesion of parent CHO cells to wells coated with the R16E/K17E lectin domain (50 μg/ml), Mg2+ buffer [1]: 60 % reduced"
integrin αvβ3 on β3-CHO cells (from UniProt P05106 27-788) (receptor),–,"static adhesion of β3-CHO cells to wells coated with the R16E/K17E lectin domain (50 μg/ml), Mg2+ buffer [1]: 60 % reduced"
soluble recombinant integrin αIIbβ3 (from UniProt P08514 32-1039; P05106 27-718) (receptor),2,–
soluble recombinant integrin αvβ3 (from UniProt P06756 31-1048; P05106 27-718) (receptor),2,–
